Data set [1] deals with T1, DPP-IV (Homo sapiens, UniProt P27487).
T1 construct: The ectodomain of DPP-IV, residues 31-766 (sDPP-IV), was amplified by PCR using a cDNA; made in house; host or cells: Pichia pastoris strain GS115 (pPICZα-A vector)
Description: Biacore surface plasmon resonance binding to immobilized DPP-IV. The following applies: ADA from bovine. As for the experimental part:
DPP-IV was immobilized on a CM5 surface plasmon resonance sensor (Biacore) using standard amide coupling chemistry. The organic adlayer on this sensor type consists of carboxymethylated dextran (MW≈100 kDA). After activation of the carboxylic acid groups using carbodiimide/N-hydroxysuccinimide solutions, the surface was contacted with a DPP-IV solution (80 μl) containing≈100 μg/ml protein in acetate buffer (10 mM, pH 4.5). […] The surfaces of two flow cells were modified with protein. […] Hepes buffer (0.01 M Hepes, pH 7.4, 0.15 M NaCl, 3 mM EDTA, 0.005% polysorbate 20 (v/v)) was used as the running buffer. Diprotin-A was disolved directly in this buffer. […] The final inhibitor solution contained less than 0.1% DMSO. Binding experiments were carried out by contacting the immobilized protein surfaces with inhibitor solutions of varying concentrations at a flow rate of 10 μl/min or 30 μl/min. After each contact with inhibitor, the protein surfaces were regenerated by extensively washing with running buffer.

The target of data set [2] is T2, sDPP-IV (soluble extracellular domain of human dipeptidyl peptidase IV) (Homo sapiens, UniProt P27487).
T2 construct: The ectodomain of DPP-IV, residues 31-766 (sDPP-IV), was amplified by PCR using a cDNA; made in house; host or cells: Pichia pastoris strain GS115 (pPICZα-A vector)
Description: DPP-IV activity assay, fluorescence of products from Ala-Pro-7-amido-4-trifluoromethylcoumarin. It is filed as biochemical. The following applies: Lineweaver-Burk plots; 50 mM Tris/HCl pH 7.8, 100 mM NaCl, 0.1 mg/ml BSA, 0.5% dimethylformamide; 25° C. As for the experimental part:
A 20 mM stock solution in 10% DMF is stored at −20° C. until use. […] DPP-IV activity assays were performed in 96 well plates in a total assay volume of 100 μl. The assay buffer consists of S-Buffer containing 0.1 mg/ml BSA. […] Initial rate constants are calculated by best fit linear regression.

B1: ADA: adenosine deaminase, Sigma Type IV, from calf intestinal mucosa (bovine) (protein)
chain: AQTPAFNKPKVELHVHLDGAIKPETILYYGRKRGIALPADTPEELQNIIGMDKPLSLPEFLAKFDYYMPAIAGCREAVKRIAYEFVEMKAKDGVVYVEVRYSPHLLANSKVEPIPWNQAEGDLTPDEVVSLVNQGLQEGERDFGVKVRSILCCMRHQPSWSSEVVELCKKYREQTVVAIDLAGDETIEGSSLFPGHVKAYAEAVKSGVHRTVHAGEVGSANVVKEAVDTLKTERLGHGYHTLEDATLYNRLRQENMHFEVCPWSSYLTGAWKPDTEHPVVRFKNDQVNYSLNTDDPLIFKSTLDTDYQMTKNEMGFTEEEFKRLNINAAKSSFLPEDEKKELLDLLYKAYGMPSPA
Take B1: in data set [1], the “koff (dissociation rate) of ADA” value worked out at 8.75e-05 s⁻¹ and the “kon of ADA” value was determined as 29800 M⁻¹ s⁻¹.

B2: sDPP-IVdeglycos: enzymatically deglycosylated sDPP-IV (EndoF1-GST treated) (protein)
chain: GTDDATADSRKTYTLTDYLKNTYRLKLYSLRWISDHEYLYKQENNILVFNAEYGNSSVFLENSTFDEFGHSINDYSISPDGQFILLEYNYVKQWRHSYTASYDIYDLNKRQLITEERIPNNTQWVTWSPVGHKLAYVWNNDIYVKIEPNLPSYRITWTGKEDIIYNGITDWVYEEEVFSAYSALWWSPNGTFLAYAQFNDTEVPLIEYSFYSDESLQYPKTVRVPYPKAGAVNPTVKFFVVNTDSLSSVTNATSIQITAPASMLIGDHYLCDVTWATQERISLQWLRRIQNYSVMDICDYDESSGRWNCLVARQHIEMSTTGWVGRFRPSEPHFTLDGNSFYKIISNEEGYRHICYFQIDKKDCTFITKGTWEVIGIEALTSDYLYYISNEYKGMPGGRNLYKIQLSDYTKVTCLSCELNPERCQYYSVSFSKEAKYYQLRCSGPGLPLYTLHSSVNDKGLRVLEDNSALDKMLQNVQMPSKKLDFIILNETKFWYQMILPPHFDKSKKYPLLLDVYAGPCSQKADTVFRLNWATYLASTENIIVASFDGRGSGYQGDKIMHAINRRLGTFEVEDQIEAARQFSKMGFVDNKRIAIWGWSYGGYVTSMVLGSGSGVFKCGIAVAPVSRWEYYDSVYTERYMGLPTPEDNLDHYRNSTVMSRAENFKQVEYLLIHGTADDNVHFQQSAQISKALVDVGVDFQAMWYTDEDHGIASSTAHQHIYTHMSHFIKQCFSLP
As usually defined, the Km is the concentration of substrate that gives half-maximal velocity. In general, kcat refers to the maximal rate divided by the concentration of active sites. On to B2, for which, in data set [2], the Km was found to be 17.2 µM and the kcat worked out at 43.1 s⁻¹.

B3: sDPP-IVglycos: glycosylated sDPP-IV (protein)
chain: GTDDATADSRKTYTLTDYLKNTYRLKLYSLRWISDHEYLYKQENNILVFNAEYGNSSVFLENSTFDEFGHSINDYSISPDGQFILLEYNYVKQWRHSYTASYDIYDLNKRQLITEERIPNNTQWVTWSPVGHKLAYVWNNDIYVKIEPNLPSYRITWTGKEDIIYNGITDWVYEEEVFSAYSALWWSPNGTFLAYAQFNDTEVPLIEYSFYSDESLQYPKTVRVPYPKAGAVNPTVKFFVVNTDSLSSVTNATSIQITAPASMLIGDHYLCDVTWATQERISLQWLRRIQNYSVMDICDYDESSGRWNCLVARQHIEMSTTGWVGRFRPSEPHFTLDGNSFYKIISNEEGYRHICYFQIDKKDCTFITKGTWEVIGIEALTSDYLYYISNEYKGMPGGRNLYKIQLSDYTKVTCLSCELNPERCQYYSVSFSKEAKYYQLRCSGPGLPLYTLHSSVNDKGLRVLEDNSALDKMLQNVQMPSKKLDFIILNETKFWYQMILPPHFDKSKKYPLLLDVYAGPCSQKADTVFRLNWATYLASTENIIVASFDGRGSGYQGDKIMHAINRRLGTFEVEDQIEAARQFSKMGFVDNKRIAIWGWSYGGYVTSMVLGSGSGVFKCGIAVAPVSRWEYYDSVYTERYMGLPTPEDNLDHYRNSTVMSRAENFKQVEYLLIHGTADDNVHFQQSAQISKALVDVGVDFQAMWYTDEDHGIASSTAHQHIYTHMSHFIKQCFSLP
Regarding B3, in data set [2], the Km worked out at 15.5 µM and the kcat stood at 37.3 s⁻¹.
